Data from PMC4517176.

Legend:
[1] = target: ePTEN-GFP (expressed in HEK293) (human) (UniProt P60484); assay: co-IP; PTEN-GFP constructs from HEK293 lysates held on anti-GFP beads (two hours), then 400 ul whole-cell lysate of HEK293 expressing HA-NEDD4-1 added for three hours; three washes; blots with anti-GFP and anti-HA; band intensity quantified (n = 3)
[2] = target: nPTEN-GFP (expressed in HEK293) (human) (UniProt P60484); assay: as above

In the case of “HA-NEDD4-1 (from UniProt P46934 1-1319) (enzyme)”, the increase of co-precipitated NEDD4-1 against GFP alone and wild-type PTEN-GFP [1] is reported as 2.5 and the increase of co-precipitated NEDD4-1 against GFP alone and wild-type PTEN-GFP [2] is reported as 2.5.
